T1: FGFRL1 Ig2 (Homo sapiens, UniProt Q8N441)
T1 chain: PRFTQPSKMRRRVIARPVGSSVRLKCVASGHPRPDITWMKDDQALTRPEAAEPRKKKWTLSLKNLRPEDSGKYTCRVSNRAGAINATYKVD


What was measured:
FGFR1 (Homo sapiens) = FGFR1 (Homo sapiens) (UniProt P11362); conditions: cited from earlier work
FGFRL1 (Homo sapiens) = FGFRL1 (Homo sapiens) (UniProt Q8N441); conditions: cited from earlier work
FGFR2 (Homo sapiens) = FGFR2 (Homo sapiens) (UniProt P21802); conditions: cited from earlier work
[1] = biological target: Human FGF8b (fibroblast growth factor 8, isoform b) (human); assay: SPR; Biacore X100; FGF8b covalently attached (amine coupling, 295 RU) to a matrix-free C1 chip; FGFRL1 polypeptides injected at 3.125-50 nM in HBS-EP+ (10 mM HEPES, 150 mM NaCl, 3 mM EDTA, 0.05% P20, pH 7.4), 30 μL/min, 120 s association, 240 s dissociation; global kinetic fit to a 1:1 model
FGFRL1 Ig2 = biological target: T1, FGFRL1 Ig2; assay: SPR

Chain of FGFRL1 Ig2 construct (Q8N441 other isoform, or with tags, fused parts or gaps): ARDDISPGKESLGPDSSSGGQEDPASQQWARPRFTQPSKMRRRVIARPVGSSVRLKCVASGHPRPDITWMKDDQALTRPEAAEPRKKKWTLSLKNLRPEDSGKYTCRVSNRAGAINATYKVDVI
Chain of FGFRL1 Ig12 construct (Q8N441 25-239): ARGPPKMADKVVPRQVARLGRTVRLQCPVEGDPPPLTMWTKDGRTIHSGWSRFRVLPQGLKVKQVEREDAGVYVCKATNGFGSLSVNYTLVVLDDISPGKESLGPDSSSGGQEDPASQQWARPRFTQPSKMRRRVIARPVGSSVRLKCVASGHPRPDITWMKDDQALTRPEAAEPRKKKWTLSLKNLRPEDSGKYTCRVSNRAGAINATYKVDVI
Chain of FGFRL1 Ig123 (complete extracellular domain of human fibroblast growth factor receptor-like protein 1) (Q8N441 25-359): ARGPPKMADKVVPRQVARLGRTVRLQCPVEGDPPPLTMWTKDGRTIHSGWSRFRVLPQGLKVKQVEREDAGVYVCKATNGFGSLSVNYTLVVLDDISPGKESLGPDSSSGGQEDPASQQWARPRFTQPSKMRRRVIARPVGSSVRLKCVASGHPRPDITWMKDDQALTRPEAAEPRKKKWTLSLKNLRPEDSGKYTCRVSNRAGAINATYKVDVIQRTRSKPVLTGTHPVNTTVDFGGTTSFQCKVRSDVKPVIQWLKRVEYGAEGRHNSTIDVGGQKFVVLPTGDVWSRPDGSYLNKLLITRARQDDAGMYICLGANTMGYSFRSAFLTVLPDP
Chain of FGF2 (P09038 143-288): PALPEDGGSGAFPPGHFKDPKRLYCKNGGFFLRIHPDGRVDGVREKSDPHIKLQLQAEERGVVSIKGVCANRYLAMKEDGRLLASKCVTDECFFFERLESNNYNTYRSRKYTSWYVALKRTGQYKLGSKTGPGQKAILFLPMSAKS
Chain of FGFRL1 (Homo sapiens) (Q8N441 25-378): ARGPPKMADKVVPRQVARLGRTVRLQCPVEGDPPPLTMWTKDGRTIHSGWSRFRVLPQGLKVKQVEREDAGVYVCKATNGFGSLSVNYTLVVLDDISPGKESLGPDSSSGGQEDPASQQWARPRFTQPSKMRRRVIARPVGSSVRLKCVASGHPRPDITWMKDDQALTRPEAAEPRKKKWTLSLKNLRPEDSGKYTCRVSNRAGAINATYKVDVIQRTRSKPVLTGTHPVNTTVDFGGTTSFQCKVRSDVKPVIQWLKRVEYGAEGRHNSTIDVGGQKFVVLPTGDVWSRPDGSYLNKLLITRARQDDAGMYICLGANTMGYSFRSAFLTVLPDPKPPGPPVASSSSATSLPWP
Chain of FGFR2 (Homo sapiens) (P21802 22-377): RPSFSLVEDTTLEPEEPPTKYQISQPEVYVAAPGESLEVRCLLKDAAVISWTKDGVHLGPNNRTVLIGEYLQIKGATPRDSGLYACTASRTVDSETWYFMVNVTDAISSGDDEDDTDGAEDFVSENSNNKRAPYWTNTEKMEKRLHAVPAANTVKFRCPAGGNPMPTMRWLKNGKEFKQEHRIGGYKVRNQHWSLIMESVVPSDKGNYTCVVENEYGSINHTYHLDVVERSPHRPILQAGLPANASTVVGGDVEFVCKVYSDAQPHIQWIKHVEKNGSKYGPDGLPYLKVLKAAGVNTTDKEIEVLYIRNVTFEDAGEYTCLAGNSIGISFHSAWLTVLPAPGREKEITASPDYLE
Chain of FGFR1 (Homo sapiens) (P11362 22-822 P252R): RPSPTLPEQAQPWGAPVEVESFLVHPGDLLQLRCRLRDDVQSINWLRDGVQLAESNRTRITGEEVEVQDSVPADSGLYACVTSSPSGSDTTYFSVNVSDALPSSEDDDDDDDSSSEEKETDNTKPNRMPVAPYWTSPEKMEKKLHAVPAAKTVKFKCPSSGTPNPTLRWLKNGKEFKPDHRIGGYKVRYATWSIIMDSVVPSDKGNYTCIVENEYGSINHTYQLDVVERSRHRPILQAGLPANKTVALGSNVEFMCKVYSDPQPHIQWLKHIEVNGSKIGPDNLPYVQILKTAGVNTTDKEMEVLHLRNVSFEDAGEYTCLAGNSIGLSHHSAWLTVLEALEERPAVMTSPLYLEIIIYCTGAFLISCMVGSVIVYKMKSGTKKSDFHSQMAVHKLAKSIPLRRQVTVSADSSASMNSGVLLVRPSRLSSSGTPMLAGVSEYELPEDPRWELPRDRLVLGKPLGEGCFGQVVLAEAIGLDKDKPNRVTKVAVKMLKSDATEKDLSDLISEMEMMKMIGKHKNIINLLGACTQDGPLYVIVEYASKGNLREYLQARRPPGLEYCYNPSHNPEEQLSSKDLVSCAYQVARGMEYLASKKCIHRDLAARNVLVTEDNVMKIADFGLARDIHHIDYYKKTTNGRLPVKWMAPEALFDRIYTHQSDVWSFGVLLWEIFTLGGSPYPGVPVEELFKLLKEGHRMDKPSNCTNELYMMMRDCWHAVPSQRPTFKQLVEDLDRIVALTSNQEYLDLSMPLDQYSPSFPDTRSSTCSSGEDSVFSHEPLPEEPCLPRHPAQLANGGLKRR
Chain of FGF3 (P11487 18-239): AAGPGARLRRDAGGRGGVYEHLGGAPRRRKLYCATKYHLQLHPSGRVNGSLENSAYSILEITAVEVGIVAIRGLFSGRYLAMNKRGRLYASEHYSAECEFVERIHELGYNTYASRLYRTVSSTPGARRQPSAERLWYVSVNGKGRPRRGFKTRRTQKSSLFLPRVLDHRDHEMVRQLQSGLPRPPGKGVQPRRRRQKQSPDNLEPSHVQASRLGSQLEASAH

Molecule | Kd [1] | koff [1] | kon [1] | also measured
FGF2 (from UniProt P09038) | – | – | – | Kd (FGFR1 (Homo sapiens)): 24 nM
FGF3 (from UniProt P11487) | – | – | – | Kd (FGFRL1 (Homo sapiens)): 4.2 nM
FGF8 (from UniProt P55075) | – | – | – | Kd (FGFR2 (Homo sapiens)): 130 nM
FGFRL1 Ig2 construct (from UniProt Q8N441 25-26; Q8N441 118-239) (domain or fragment) | 1.73 nM | 0.0092 s⁻¹ | 5.32e+06 M⁻¹ s⁻¹ | –
FGFRL1 Ig12 construct (from UniProt Q8N441 25-239) (domain or fragment) | 1.94 nM | 0.0107 s⁻¹ | 5.49e+06 M⁻¹ s⁻¹ | –
FGFRL1 Ig23 construct (from UniProt Q8N441 25-26; Q8N441 118-357) (domain or fragment) | 2.07 nM | 0.000806 s⁻¹ | 390000 M⁻¹ s⁻¹ | –
FGFRL1 Ig123 (complete extracellular domain of human fibroblast growth factor receptor-like protein 1) (from UniProt Q8N441 25-359) (domain or fragment) | 3.37 nM | 0.00126 s⁻¹ | 373000 M⁻¹ s⁻¹ | –
FGF8 (protein) QEGPGRGPALGRELASLFRAGREPQGVSQQHVREQSLVTDQLSRRLIRTYQLYSRTSGKHVQVLANKRINAMAEDGDPFAKLIVETDTFGSRVRVRGAETGLYICMNKKGKLIAKSNGKGKDCVFTEIVLENNYTALQNAKYEGWYMAFTRKGRPRKGSKTRQHQREVHFMKRLPRGHHTTEQSLRFEFLNYPPFTRSLRGSQRTWAPEPR | – | – | – | Kd (FGFRL1 Ig2): 1.7 nM
